In the supplement of paper PMC6755084 one finds fraction ligated data, which are given here for 40 sequences.

The data set concerns F1*sub RNA substrate (template-directed ligation). In words: fraction ligated after 30 min (ligated reads / total reads); higher = more ligase activity; sequences stand for … in GAGACCGCAACTGAAAAGTTGT…AGTTCTGCACGTAGAAGCAAAAGGC
Particulars: 42 °C. The gist of the method:
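Ligase ribozyme variants were made from oligo-pool templates by PCR amplification, T7 transcription and gel purification. After gel separation, ligated and unligated bands were reverse transcribed with barcoded primers and sequenced on a MiSeq, with core bases filtered at quality ≥20. The fraction ligated for each variant was the number of ligated reads divided by total reads.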
With “TATCACTTTGTAGACACTTTGGATGGGTTGA [3d1466]”, the fraction ligated is 0.843.

The sequence “TATCACTTGTGTAAGACACTTTGGTGGGTTG [3d1802]” displayed a fraction ligated of 0.0157.

Sequence “TATCACTTGTCTAAGAACTTTGGTGGGTTGA [3d1859]” came in with a fraction ligated of 0.162.

Turning to “TATCACTTGTCGAGACACTTTGGATGGGTTGA [2d208]”, the fraction ligated came out at 0.816.

The sequence ATCACTTTCGTAAGACCTTTGGATGGGTTGA [3d131] registered a fraction ligated of 0.752.

As for TTCACTTGTCGTAAGACACTTTGGAGGGTTGA [2d43], the fraction ligated is 0.227.

For “TATCACTTGTCGTAAGACACTTTGAGGGTTGA [2d285]”, the fraction ligated was 0.00683.

“TATCACTGTCGTAGACATTTGGATGGGTTGA [3d1390]”: the fraction ligated amounted to 0.864.

Turning to TATCCTTTCGTAAACACTTTGGATGGGTTGA [3d972], the fraction ligated was determined as 0.795.

In the case of ATACTTGTCGTAAGACACTTTGGTGGGTTGA [3d62], the fraction ligated was determined as 0.0395.

“TATCACTTGTTAGACACTTTGGATGGGTTGA [3d1705]” registered a fraction ligated of 0.842.

Sequence “TATCACTGTCGAAGACATTTGGATGGGTTGA [3d1377]” displayed a fraction ligated of 0.841.

As to “TATCACTTGCGTAAGACCTTTGGAGGGTTGA [3d1670]”, the fraction ligated amounted to 0.0866.

In the case of TATACTTGCGTAAGACACTTTGGATGGGTTG [3d827], the fraction ligated is 0.272.

As to TCACTTGTCGTAAGACACTTTGATGGGTTGA [3d18], the fraction ligated amounted to 0.183.

For the sequence TTCACTTGTCGAAGACCTTTGGATGGGTTGA [3d420], the fraction ligated stood at 0.66.

“TATCACTTGTGAAGACACTTTGGATGGTTGA [3d1728]” returned a fraction ligated of 0.243.

Sequence ATCACTTTCGTAAGCACTTTGGATGGGTTGA [3d129] yielded a fraction ligated of 0.766.

As to “TATCACTTTCGTAGCACTTTGGATGGGTTGA [3d1508]”, the fraction ligated amounted to 0.826.

In the case of TTACTTGTCGTAAGACACTTTGGAGGGTTGA [3d294], the fraction ligated amounted to 0.125.

The sequence “TATCACTTTGTAAGACACTTGGATGGGTTGA [3d1472]” came in with a fraction ligated of 0.802.

For “TATCACTGTCTAAGACACTTTGGTGGGTTGA [3d1367]”, the fraction ligated is 0.34.

“TATCACTTTCGTAAGACACTTGGAGGGTTGA [3d1564]” returned a fraction ligated of 0.085.

On to ATCACTGTCGTAAGACACTTTGGATGGGTTGA [2d6], for which the fraction ligated was 0.739.

“TATCACTTGTCGTAAACATTTGGTGGGTTGA [3d2076]” came in with a fraction ligated of 0.0521.

On to “TATCACTTGTCGTAAGCACTTTGGTGGGTTG [3d2144]”, for which the fraction ligated amounted to 0.0518.

In turn, TTCACTTGTCTAAGACACTTTGATGGGTTGA [3d410] showed a fraction ligated of 0.312.

Take TACACTTGTCTAAGACACTTTGGTGGGTTGA [3d641]: the fraction ligated is 0.124.

Regarding “TATCACTTGTCGTAAAACTTTGATGGGTTGA [3d2061]”, the fraction ligated worked out at 0.781.

Sequence “TATCACTTGCGTAAGACATTTGGATGGTTGA [3d1678]” gave a fraction ligated of 0.16.

In turn, “TATCACTTGCTAAGACATTTGGATGGGTTGA [3d1605]” registered a fraction ligated of 0.849.

TTCACTTGTCGTAAGCATTTGGATGGGTTGA [3d454] returned a fraction ligated of 0.769.

With TACACTTGCGTAAACACTTTGGATGGGTTGA [3d605], the fraction ligated stood at 0.036.

On to TATACTTGTCTAAGAACTTTGGATGGGTTGA [3d847], for which the fraction ligated came to 0.765.

In the case of TACACTTTCGTAAGACACTTTGGATGGTTGA [3d598], the fraction ligated is 0.0486.

In the case of “TATCACTTGCGTAAGACATTTGATGGGTTGA [3d1675]”, the fraction ligated turned out to be 0.574.

TATTTGTCGTAAGACACTTTGGATGGGTTGA [3d738]: the fraction ligated amounted to 0.762.

Take TTACTTGTCGTAAGACACTTTGGATGGGTTA [3d296]: the fraction ligated was 0.0531.

“TATCATTGTCGTAAGCACTTTGGATGGTTGA [3d1244]” registered a fraction ligated of 0.0553.

“TATCACTTGTCGTAAAACTTTGGAGGGTTGA [3d2063]” returned a fraction ligated of 0.0898.
